Here are results for one molecule from article PMC4530586, “STIL binding to Polo-box 3 of PLK4 regulates centriole duplication” (eLife, 2015).

The target of the test is T1, human PLK4-PB3 (884–970), recombinant (human, UniProt O00444 884-970).
T1 construct: PLK4, human, residues 884–970 (Polo-box 3); isotope-labelled (2H, 15N, 13C) samples were used for NMR; also called Polo-box 3; source: E. coli BL21 DE3, purified (nickel resin, TEV cleavage, Superdex75 SEC); not shown: thioredoxin, N-terminal, cleaved; His6, N-terminal, cleaved
T1 sequence (looked up): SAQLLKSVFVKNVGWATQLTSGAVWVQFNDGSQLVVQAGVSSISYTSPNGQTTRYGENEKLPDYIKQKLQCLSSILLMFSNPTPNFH
The experiment in a line: ITC; synthetic STIL-CC peptide (414 µM) titrated into recombinant PB3 (35.5 µM); 50 mM Hepes pH 8.0, 150 mM NaCl, 1 mM TCEP; 25°C; 30 injections of 10 µl; one-site binding model. The conditions noted are these: both partners purified.

B1: synthetic STIL-CC peptide (peptide, UniProt Q15468 720-751, looked up)
peptide: PDAYRFLTEQDRQLRLLQAQIQRLLEAQSLMP
notes: also called synthetic peptide corresponding to STIL-CC; source: synthetic peptide
As for B1, the equilibrium dissociation constant (Kd) (as a rule, the concentration at which binding is half-saturated) amounted to 0.28 ± 0.06 µM and the stoichiometry N – broadly, the number of molecules, sites or subunits per partner or assembly – was determined as 1.
